Here are results for two variants from article PMC10302205, “Saccharomyces cerevisiae Δ9-desaturase Ole1 forms a supercomplex with Slc1 and Dga1” (The Journal of Biological Chemistry, 2023).

The chains are these.
B1: NubG-Dga1 (full-length NubG-Dga1 fusion) [S. cerevisiae] / Ole1-Myc-Cub-LexA-VP16 [S. cerevisiae] (parent complex)
chain 1: MSGTFNDIRRRKKEEGSPTAGITERHENKSLSSIDKREQTLKPQLESCCPLATPFERRLQTLAVAWHTSSFVLFSIFTLFAISTPALWVLAIPYMIYFFFDRSPATGEVVNRYSLRFRSLPIWKWYCDYFPISLIKTVNLKPTFTLSKNKRVNEKNYKIRLWPTKYSINLKSNSTIDYRNQECTGPTYLFGYHPHGIGALGAFGAFATEGCNYSKIFPGIPISLMTLVTQFHIPLYRDYLLALGISSVSRKNALRTLSKNQSICIVVGGARESLLSSTNGTQLILNKRKGFIKLAIQTGNINLVPVFAFGEVDCYNVLSTKKDSVLGKMQLWFKENFGFTIPIFYARGLFNYDFGLLPFRAPINVVVGRPIYVEKKITNPPDDVVNHFHDLYIAELKRLYYENREKYGVPDAELKIVG
chain 2: MPTSGTTIELIDDQFPKDDSASSGIVDEVDLTEANILATGLNKKAPRIVNGFGSLMGSKEMVSVEFDKKGNEKKSNLDRLLEKDNQEKEEAKTKIHISEQPWTLNNWHQHLNWLNMVLVCGMPMIGWYFALSGKVPLHLNVFLFSVFYYAVGGVSITAGYHRLWSHRSYSAHWPLRLFYAIFGCASVEGSAKWWGHSHRIHHRYTDTLRDPYDARRGLWYSHMGWMLLKPNPKYKARADITDMTDDWTIRFQHRHYILLMLLTAFVIPTLICGYFFNDYMGGLIYAGFIRVFVIQQATFCINSLAHYIGTQPFDDRRTPRDNWITAIVTFGEGYHNFHHEFPTDYRNAIKWYQYDPTKVIIYLTSLVGLAYDLKKFSQNAIEEALIQQEQKKINKKKAKINWGPVLTDLPMWDKQTFLAKSKENKGLVIISGIVHDVSGYISEHPGGETLIKTALGKDATKAFSGGVYRHSNAAQNVLADMRVAVIKESKNSAIRMASKRGEIYETGKFF

The experiment covers variants of B1. Description: integrated membrane yeast two-hybrid assay (β-galactosidase reporter); n = 3 biological replicates; parent: 1; read off a plot.
In the case of chain 1 R404A, chain 1 E405A, chain 1 K406A, the ratio to parent is ~0.84.

With chain 1 K397A, chain 1 R398A, chain 1 D411A, chain 1 E413A, chain 1 K415A, the ratio to parent was ~0.2.
